Measured values: publication PMC3160658

Assays:
[1] = biological target: T1, RAD52 Y104D (Homo sapiens, UniProt P43351 1-418, Y104D); test: EMSA
T1 sequence: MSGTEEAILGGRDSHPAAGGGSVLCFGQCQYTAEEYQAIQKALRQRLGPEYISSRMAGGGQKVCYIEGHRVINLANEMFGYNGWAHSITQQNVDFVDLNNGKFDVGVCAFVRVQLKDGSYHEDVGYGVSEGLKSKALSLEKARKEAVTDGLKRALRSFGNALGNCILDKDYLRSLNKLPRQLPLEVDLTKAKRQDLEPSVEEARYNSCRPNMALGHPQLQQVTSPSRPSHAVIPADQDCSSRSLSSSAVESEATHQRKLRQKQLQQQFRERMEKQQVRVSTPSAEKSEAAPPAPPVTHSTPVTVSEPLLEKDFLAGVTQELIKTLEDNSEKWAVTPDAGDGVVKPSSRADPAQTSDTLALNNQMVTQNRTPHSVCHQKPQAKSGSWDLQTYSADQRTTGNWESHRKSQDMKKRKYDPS

[2] = biological target: RAD52;RPA (Homo sapiens;human?, UniProt P43351;P27694;P15927;P35244 1-418;1-616;1-270;1-121, |); test: FRET titration
RAD52;RPA, sequence (P27694 whole entry, chain 2 of 3): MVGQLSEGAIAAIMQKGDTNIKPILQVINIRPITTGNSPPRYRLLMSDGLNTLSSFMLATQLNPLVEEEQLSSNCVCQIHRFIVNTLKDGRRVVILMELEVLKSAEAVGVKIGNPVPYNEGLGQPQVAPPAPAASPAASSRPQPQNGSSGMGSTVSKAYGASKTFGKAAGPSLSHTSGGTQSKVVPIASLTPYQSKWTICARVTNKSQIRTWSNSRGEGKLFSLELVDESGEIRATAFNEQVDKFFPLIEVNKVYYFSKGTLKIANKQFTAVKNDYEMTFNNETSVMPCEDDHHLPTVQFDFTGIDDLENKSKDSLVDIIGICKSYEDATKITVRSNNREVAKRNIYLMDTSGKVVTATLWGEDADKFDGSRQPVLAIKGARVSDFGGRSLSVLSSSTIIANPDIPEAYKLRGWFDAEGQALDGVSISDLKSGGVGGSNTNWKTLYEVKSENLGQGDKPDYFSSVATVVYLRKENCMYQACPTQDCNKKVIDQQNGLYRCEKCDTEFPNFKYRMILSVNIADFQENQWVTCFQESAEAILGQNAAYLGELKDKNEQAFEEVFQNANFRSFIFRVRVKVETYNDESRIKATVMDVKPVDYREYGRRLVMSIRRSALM
RAD52;RPA, sequence (P15927 whole entry, chain 3 of 3): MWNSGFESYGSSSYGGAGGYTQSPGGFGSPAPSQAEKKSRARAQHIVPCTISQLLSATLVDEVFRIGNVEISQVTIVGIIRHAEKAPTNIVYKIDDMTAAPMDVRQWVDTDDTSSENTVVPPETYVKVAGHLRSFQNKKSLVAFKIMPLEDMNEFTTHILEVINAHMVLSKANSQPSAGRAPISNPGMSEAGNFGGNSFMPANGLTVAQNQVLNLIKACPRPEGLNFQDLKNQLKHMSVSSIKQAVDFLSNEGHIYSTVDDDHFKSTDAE
RAD52;RPA, sequence (P35244 whole entry, chain 4 of 3): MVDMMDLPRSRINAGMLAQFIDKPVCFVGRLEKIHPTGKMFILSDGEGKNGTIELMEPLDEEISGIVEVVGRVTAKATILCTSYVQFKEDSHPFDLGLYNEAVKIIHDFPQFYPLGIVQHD

TTTTTTTTTTTTTTTTTTTTTTTTTTTTTT (ssDNA) [Cy5-(dT)30-Cy3]
binding result [1]: binds | binding result [2]: binds
